The target of experiment [1] is T1, interleukin 4 (IL4) (UniProt P05112 25-153).
T1 sequence (looked up): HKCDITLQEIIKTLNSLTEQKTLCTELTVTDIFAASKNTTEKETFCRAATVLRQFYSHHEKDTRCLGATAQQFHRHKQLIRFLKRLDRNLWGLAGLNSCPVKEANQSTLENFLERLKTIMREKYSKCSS
The experiment in a line: phage ELISA, Fab-displaying phage on IL4. (In general: An ELISA detects its analyte on a solid surface through an enzyme-linked reagent.)
Description: Anti-gD antibody was directly coated on ELISA wells, whereas IL4 was captured with a non-blocking anti-IL4 antibody coated on ELISA wells.

Experiment [2] has as its target T1, interleukin 4 (IL4). Description: phage competition ELISA: Fab-phage incubated 2 h with serial dilutions of the antigen in solution, unbound phage captured on antigen-coated wells, anti-M13-HRP; IC50 = antigen concentration inhibiting 50% of phage binding. As for the experimental part:
(§1) Fab displaying phage was first incubated with serial dilutions of the respective antigens in solution for 2 h, unbound phage was then briefly captured by antigen coated ELISA wells and detected with anti-M13 HRP conjugate. The concentration of antigen inhibiting 50% of phage binding to antigen coated well is calculated as IC₅₀. NB denotes no detectable binding of phage clone directly to the antigens coated wells.

In experiment [3] the target is T2, interleukin 13 (IL13) (UniProt P35225 35-146, limits assumed). The experiment in a line: phage ELISA: direct binding of the phage clone to antigen-coated wells (NB = no detectable binding).
T2 sequence (P35225 35-146 limits assumed): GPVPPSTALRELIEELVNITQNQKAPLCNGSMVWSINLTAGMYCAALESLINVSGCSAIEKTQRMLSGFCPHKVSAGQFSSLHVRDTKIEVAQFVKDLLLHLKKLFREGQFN
In experiment [4] the target is T3, interleukin 5 (IL5) (human, UniProt P05113 20-134).
T3 construct: also called human IL5 (R&D Systems)
T3 sequence (looked up): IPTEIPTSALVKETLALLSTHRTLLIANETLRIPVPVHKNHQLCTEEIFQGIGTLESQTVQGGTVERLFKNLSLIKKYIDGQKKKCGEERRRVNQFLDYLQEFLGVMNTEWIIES
The experiment is described as above.

In experiment [5] the target is T3, interleukin 5 (IL5). Description: SPR (Biacore), Fab over immobilized human IL5, 25 °C. On the technique in general: Surface plasmon resonance follows binding to a sensor surface in real time, without labels.
Another experiment concerns the target T4, BSA (bovine, UniProt P02769).
T4 construct: negative control protein; also called irrelevant protein coated on ELISA wells
Description: ELISA: human IgG1 at 250 nM on protein-coated wells, anti-Fc-HRP.

For experiment [6], the target named is T2, interleukin 13 (IL13). The description is as above.
For experiment [7], the target named is T1, interleukin 4 (IL4). The experiment is described as above.
The target in another experiment is T5, HER2 ECD.
T5 construct: one of the irrelevant proteins; also called irrelevant protein coated on ELISA wells
The experiment is described as above.

For experiment [8], the target named is T3, interleukin 5 (IL5). Description: phage competition ELISA: Fab-phage incubated 2 h with serial dilutions of the antigen in solution, unbound phage captured on antigen-coated wells, anti-M13-HRP; IC50 = antigen concentration inhibiting 50% of phage binding. Here is the method: as §1
The target in experiment [9] is T1, interleukin 4 (IL4). The experiment in a line: phage ELISA: direct binding of the phage clone to antigen-coated wells (NB = no detectable binding).

The values that follow come from patent US20160257744A1 (Genentech, published 2016).

Where a chain is given by its changes, count along the chain named.

T4 sequence (P02769 25-607 limits assumed): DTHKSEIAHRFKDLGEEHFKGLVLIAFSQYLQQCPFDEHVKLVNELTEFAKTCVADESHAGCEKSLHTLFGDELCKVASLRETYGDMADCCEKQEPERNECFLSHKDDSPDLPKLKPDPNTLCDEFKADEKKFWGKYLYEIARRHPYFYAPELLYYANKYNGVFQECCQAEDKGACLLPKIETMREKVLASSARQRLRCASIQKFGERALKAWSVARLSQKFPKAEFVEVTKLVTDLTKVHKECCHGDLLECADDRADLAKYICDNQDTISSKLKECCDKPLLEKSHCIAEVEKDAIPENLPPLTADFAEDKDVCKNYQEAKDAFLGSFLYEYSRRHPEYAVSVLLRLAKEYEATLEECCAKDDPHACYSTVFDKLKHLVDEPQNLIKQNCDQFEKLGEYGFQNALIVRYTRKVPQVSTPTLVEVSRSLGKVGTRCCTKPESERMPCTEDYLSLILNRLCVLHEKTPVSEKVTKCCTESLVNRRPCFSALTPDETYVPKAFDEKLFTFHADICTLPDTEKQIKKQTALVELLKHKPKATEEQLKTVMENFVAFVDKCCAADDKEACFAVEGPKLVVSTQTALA

B1: humanized antibody 19C11 (hu19C11) wild-type Fab displayed on M13 phage (Fab, V domains shown)
VH: EVQLVQSGAEVKKPGASVKVSCKASGYTFTDYSMHWVRQAPGQGLEWIVWINTETGEPTYADDFKGRVTITRDTSTSTAYLELSSLRSEDTAVYYCARGGIFYGMDYWGQGTLVTVSS
VL: DIQMTQSPSSLSASVGDRVTITCKASQSVINDAAWYQQKPGKAPKLLIYYTSHRYTGVPSRFSGSGSGTDFTLTISSLQEDFATYYCQQDYTSPWTFGQGTKVEIKR
notes: Phagemid pV0115: light chain with gD expression tag fused to its C-terminus; VH-CH1 followed by hinge piece KTHTC and M13 minor coat protein p3 (bivalent Fab display); Humanized in germline VH1 / kappa I backbone; also called hu19C11 wt; Fab-displaying phage
Take B1: the EC50 (in general, the concentration at which the effect is half-maximal) with interleukin 4 (IL4) [1] is 1 nM. For the same molecule, the IC50 (as a rule, the concentration needed to halve the response being measured) with interleukin 4 (IL4) [2] came to 1.1 nM. Further, the binding result in the experiment with interleukin 13 (IL13) [3] and with interleukin 5 (IL5) [4] was “no binding” in each case.

B2: E7 purified as Fab (Fab, V domains shown)
VH: EVQLVQSGAEVKKPGASVKVSCKASGYTFTDYFIHWVRQAPGQGLEWIAGIVYDATGFTTYADDFKGRVTITRDTSTSTAYLELSSLRSEDTAVYYCARGGIFYGMDYWGQGTLVTVSS
VL: B1 VL
notes: also called IL4/IL5 dual specific clone E7
Consider B2, for which binding with interleukin 5 (IL5) [5] was put at a Kd of 905 nM.

B3: 5A as human IgG1 (antibody, V domains shown)
VH: B1 VH with S33D, M34I, G99E, G100I, I101L
VL: B1 VL
For B3, the binding result with BSA, with interleukin 13 (IL13) [6], with interleukin 4 (IL4) [7] and in the experiment with HER2 ECD was “no binding (tested: 250 nM)” each time.

B4: 5A, anti-IL5 specific variant of hu19C11, Fab displayed on phage (Fab, V domains shown)
VH: B1 VH with S33D, M34I, G99E, G100I, I101L
VL: B1 VL
notes: also called clone 5A
In the case of B4, the IC50 with interleukin 5 (IL5) [8] is roughly 1000 nM. The binding result with interleukin 13 (IL13) [3] and with interleukin 4 (IL4) [9] was “no binding” each time.
